The text below walks through data of publication PMC4829432, “T-box3 is a ciliary protein and regulates stability of the Gli3 transcription factor to control digit number” (eLife, 2016).

Sequences and labels used below:
B1: Kif7, endogenous mouse protein (natural protein, mouse (endogenous in E10.5 embryos), UniProt B7ZNG0 1-1348, looked up)
chain: MGLEAQRLPGAEEAPVRVALRVRPLLPKELLHGHQSCLRVEPERGRITLGRDRHFGFHVVLGEDTGQEAVYQACVQPLLEAFFEGFNATVFAYGQTGSGKTYTMGEASVASLHEDEQGIIPRAMAEAFKLIDENDLLDCLVHVSYLELYKEEFRDLLEVGTASRDIQLREDDRGNVVLCGVKEVDVEGLDEVLSLLEMGNAARHTGATHFNRLSSRSHTVFTVTLEQRGRTPSRLPRPAAGHLLVSKFHFVDLAGSERVLKTGSTGERLKESIQINSTLLALGNVISALGDPQRRGSHIPYRDSKITRILKDSLGGNAKTVMIACVSPSSSDFDETLNTLNYASRAQNIRNRATVNWHPEAERVPEEQAAGARGPPRHRSETRIIHRGRRVPCPAVGSAAVAAGLGAECARCRARTSAAYSLLRELQAEPGLPGAAARKVRDWLCAVEGERSTLSSASGPDSGIESAPAEDQAAQGTSGRKGDEGTQQLLTLQSQVARLEEENRDFLAALEDAMEQYKLQSDRLREQQEEMVELRLRLELAQPGWGAPGLLQGLPPGSFVPRPHTAPLGGAHTHMLGMMPSTCLPGEEVSSEQQVVSGKEVKAEVLAQADKLRSASSTTSEEEGEEEEEEEEEEEEPPRRTLYLRRNGISNWSQRAGLSPGSPPDRKGPEVCPEEPAAAIPAPQAVGSGKVPVQTRQAPAAMASEWRLAQAQQKIRELAINIRMKEELIGELVRTGKAAQALNRQHSQRIRELEQEAERVRAELCEGQRQLRELEGREPQDASERSRLQEFRKRVAAAQSQVQVLKEKKQATERLVSLSAQSETRLQELERNVQLMRRQQGQLQRRLREETEQKRRLETEMNKRQHRVKELELKHEQQQKILKIKTEEIAAFQRKRRSGSNGSVVSLEQQQKIEEQKKWLDQEMEKVLQQRRALEELGEELRKREVILAKKEALMQEKTGLESKRLRSSQALNEDIVRVSSRLEHLEKELSEKSGQLRQGSAQNQQQIRGEIDTLRQEKDSLLKQRLEIDSKLRQGSLLSPEEERTLFQLDEAIEALDAAIEYKNEAITCRQRVLRASASLLSQCEMNLMAKLSYLSSSETRALLCKYFDKVVTLREEQHQQQIAFSELEMQLEEQQRLVYWLEVALERQRLEMDRQLTLQQKEHEQNVQLLLQQGRDHLGEGLADSKRQYEARIHALEKELGRHMWINQELKQKLSAGSTAGQSQGCERRSLCLENRQCLGNEDGLHPAAPEPLWQSSLLEGVSRVWDESRDLVHAPLPLTWKRSSLCSEQGSSEESRVRETTEPPVGRVLPMGEVGLSWNFGPLPKPRWEPRRTSPGMIDVRKNPL
notes: Kif7, ciliary kinesin family protein, mouse, endogenous in E10.5 forelimb buds and whole embryos; source: endogenous, E10.5 mouse forelimb bud lysate or E10.5 whole embryo lysate (control or Tbx3 null)

The target in experiment [1] is Kif7, endogenous mouse protein (mouse (endogenous in E10.5 embryos)) (UniProt B7ZNG0). Kind of experiment: co-IP; as a4, but lysates of Tbx3 null (Tbx3 delta-fl/delta-fl, ko) E10.5 embryos; Kif7-Gli3 co-precipitate compared with control (wt) embryos by densitometry.
Experiment [2] deals with Suppressor of fused (Sufu), endogenous mouse protein (mouse (endogenous in E10.5 embryos)) (UniProt Q9Z0P7). The experiment in a line: co-IP; endogenous proteins; E10.5 whole mouse embryo lysates in Dignam buffer C, control (wt) embryos; Sufu-Gli3, Sufu-Kif7 and Tbx3-Spop also assayed in Tbx3 null (Tbx3 delta-fl/delta-fl, ko) embryos, where less Sufu-Gli3 and Sufu-Kif7 co-precipitated; 5-10 ug antibody overnight at 4 C, Protein-G Dynal beads, immunoblot, densitometry. For orientation: In western blotting, separated proteins are transferred to a membrane and probed.

Experiment [3] addresses T1, Gli3, endogenous mouse protein as precipitated by anti-Gli3 (Gli3FL and Gli3R not told apart) (mouse (endogenous in E10.5 embryos), UniProt Q61602 1-1583).
T1 construct: Gli3 transcription factor, mouse, endogenous; Used only for the lanes in which Gli3 was the bait (IP with anti-Gli3, blot for the partner); the forms Gli3FL and Gli3R are told apart only on anti-Gli3 blots; also called endogenous Gli3; Gli3 proteins; source: endogenous, E10.5 mouse forelimb bud lysate or E10.5 whole embryo lysate (control or Tbx3 null)
The experiment in a line: co-IP; as a4, but lysates of Tbx3 null (Tbx3 delta-fl/delta-fl, ko) E10.5 embryos; Kif7-Gli3 co-precipitate compared with control (wt) embryos by densitometry. To be noted: partners not purified.

In experiment [4] the target is B1. The description is as above. Conditions: partners not purified.
Experiment [5] has as its target T2, Suppressor of fused (Sufu), endogenous mouse protein (mouse (endogenous in E10.5 embryos), UniProt Q9Z0P7 1-484).
T2 construct: Suppressor of fused (Sufu), mouse, endogenous in E10.5 embryos; source: endogenous, E10.5 mouse whole embryo lysate (control or Tbx3 null)
T2 sequence (looked up): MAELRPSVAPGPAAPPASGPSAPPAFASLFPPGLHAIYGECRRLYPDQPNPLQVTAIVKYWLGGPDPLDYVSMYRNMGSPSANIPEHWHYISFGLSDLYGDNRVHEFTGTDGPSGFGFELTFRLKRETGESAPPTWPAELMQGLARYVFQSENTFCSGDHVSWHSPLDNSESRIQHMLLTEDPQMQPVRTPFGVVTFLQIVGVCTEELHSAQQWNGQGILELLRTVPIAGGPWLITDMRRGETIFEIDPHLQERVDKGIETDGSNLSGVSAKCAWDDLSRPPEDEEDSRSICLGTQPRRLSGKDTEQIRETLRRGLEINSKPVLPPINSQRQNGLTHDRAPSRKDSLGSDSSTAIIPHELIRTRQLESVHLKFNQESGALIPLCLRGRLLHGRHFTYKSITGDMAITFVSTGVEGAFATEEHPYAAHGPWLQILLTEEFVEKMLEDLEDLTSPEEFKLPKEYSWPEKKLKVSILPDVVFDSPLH
Kind of experiment: co-IP; endogenous proteins; E10.5 whole mouse embryo lysates in Dignam buffer C, control (wt) embryos; Sufu-Gli3, Sufu-Kif7 and Tbx3-Spop also assayed in Tbx3 null (Tbx3 delta-fl/delta-fl, ko) embryos, where less Sufu-Gli3 and Sufu-Kif7 co-precipitated; 5-10 ug antibody overnight at 4 C, Protein-G Dynal beads, immunoblot, densitometry. Conditions: partners not purified.

Where only a bound is given, the exact number is not on record here.

In experiment [1], “Gli3 repressor form (Gli3R), endogenous mouse protein (from UniProt Q61602 1-1583)” gave a fold more co-precipitated in Tbx3 mutants than in controls of 3.3 fold.

“Gli3 repressor form (Gli3R), endogenous mouse protein (from UniProt Q61602 1-1583) (domain or fragment)” gave a fold more co-precipitated in controls than in Tbx3 mutants in experiment [2] greater than 9 fold. Also, the band intensity ratio of control to mutant in experiment [1] stood at 0.25.

Turning to B1, the “band intensity ratio of control to mutant” value in experiment [3] turned out to be 0.1.

B2: full length Gli3 (Gli3FL), endogenous mouse protein (natural protein, mouse (endogenous in E10.5 embryos), UniProt Q61602 1-1583, looked up)
chain: MEAQAHSSTATERKKAENSIGKCPTRTDVSEKAVASSTTSNEDESPGQIYHRERRNAITMQPQSVQGLNKISEEPSTSSDERASLIKKEIHGSLPHLAEPSLPYRGTVFAMDPRNGYMEPHYHPPHLFPAFHPPVPIDARHHEGRYHYDPSPIPPLHVPSALSSSPTYPDLPFIRISPHRNPTAASESPFSPPHPYINPYMDYIRSLHSSPSLSMISAARGLSPTDAPHAGVSPAEYYHQMALLTGQRSPYADILPSAATAGAGAIHMEYLHAMDSTRFPSPRLSARPSRKRTLSISPLSDHSFDLQTMIRTSPNSLVTILNNSRSSSSASGSYGHLSASAISPALSFTYPSAPVSLHMHQQILSRQQSLGSAFGHSPPLIHPAPTFPTQRPIPGIPTVLNPVQVSSGPSESSQSKPTSESAVSSTGDPMHNKRSKIKPDEDLPSPGSRGQQEQPEGTTLVKEEADKDESKQEPEVIYETNCHWEGCTREFDTQDQLVHHINNDHIHGEKKEFVCRWLDCSREQKPFKAQYMLVVHMRRHTGEKPHKCTFEGCTKAYSRLENLKTHLRSHTGEKPYVCEHEGCNKAFSNASDRAKHQNRTHSNEKPYVCKIPGCTKRYTDPSSLRKHVKTVHGPEAHVTKKQRGDMHPRPPPPRDSGSHSQSRSPGRPTQGAFGEQKELSNTTSKREECLQVKTVKAEKPMTSQPSPGGQSSCSSQQSPISNYSNSGLELPLTDGGSVADLSAIDETPIMDSTISTATTALALQARRNPAGTKWMEHIKLERLKQVNGMFPRLNPILPSKAPAVSPLIGNGTQSNNNYSSGGPGTLLPSRSDLSGVDFTVLNTLNRRDSNTSTISSAYLSSRRSSGISPCFSSRRSSEASQAEGRPQNVSVADSYDPISTDASRRSSEASQGDGLPSLLSLTPVQQYRLKAKYAAATGGPPPTPLPHMERLSLKTKMALLGEGRDSGVTLPPVHPPRRCSDGGGHTYRGRHLMPHDALANSVRRASDPVRTVSENMSLARVQRFSSLNSFNPPNLPPSVEKRSLVLQNYTRQESSQPRYFQASPCPPSITENVALEALTMDADANLNDEDLLPDDVVQYLNSQNQTGYGQQLQSGISEDSKVAHEPEDLDLAGLPDSHVGQEYPALEQPCSEGSKTDLPIQWNEVSSGTSDLSSSKLKCGQQRPSAQQPRGFGLYNNMVVHPHNLWKVGTGPAGGYQTLGENSSTYNGPEHFAIHSGDGLGTNGNTFHEQPFKTQQYGSQLNRQPLTSSALDHACGTGIQGSKLKGNSLQENGGLLDFSLSVAPNELAGNTVNGMQTQDQMGQGYIAHQLLSGSMQHQGPSRPGQQVLGQVGATSHINIYQGTESCLPGTQDNSSQPSSMAAIRGYQPCASYGGNRRQAMPRGNLTLQQGQLSDMSQSSRVNSIKMEAQGQSQQLCSTVQNYSGQFYDQTMGFSQQDRKAGSFSLSDANCLLQGNGTENSELLSPGANQVTSTVDSFESHDLEGVQIDFDAIIDDGDHTSLMSGALSPSIIQNLSHSSSRLTTPRASLPFPSLSMGTTNMAIGDMSSLLTSLAEESKFLAVMQ
notes: Gli3 transcription factor, mouse, the unprocessed full length form (Gli3FL band on anti-Gli3 immunoblots); also called GliFL; source: endogenous, E10.5 mouse forelimb bud lysate or E10.5 whole embryo lysate (control or Tbx3 null)
For B2, the “band intensity ratio of control to mutant” value in experiment [4] amounted to 0.1. Further, the “fold more co-precipitated in controls than in Tbx3 mutants” value in experiment [5] came to 4.6 fold.
